Measurements as given in patent US20150266967A1 (Boehringer Ingelheim, published 2015).

Columns and labels:
[1] = target: T1, recombinant Fcγ-receptor 3a protein, high affinity V158 allotype (UniProt P08637 17-208); assay: surface plasmon resonance, KD from ka and kd
T1 construct: also called Fcγ-receptor 3a V158; FC gamma receptor 3a

[2] = target: T1, recombinant Fcγ-receptor 3a protein, …; assay: surface plasmon resonance, KD compared with reference antibody
[3] = target: T2, recombinant Fcγ-receptor 3a protein, low affinity F158 allotype (UniProt P08637 17-208); assay: surface plasmon resonance, KD from ka and kd; B2, F158 allotype
T2 construct: F158 allotype; also called Fcγ-receptor 3a F158; FC gamma receptor 3a
T2 sequence (P08637 17-208 limits assumed): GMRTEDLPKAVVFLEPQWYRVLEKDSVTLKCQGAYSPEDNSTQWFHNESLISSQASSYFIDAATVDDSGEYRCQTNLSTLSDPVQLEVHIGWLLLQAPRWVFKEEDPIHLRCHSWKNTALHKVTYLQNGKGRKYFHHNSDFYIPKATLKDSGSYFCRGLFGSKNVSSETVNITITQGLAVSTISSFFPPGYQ

[4] = target: T2, recombinant Fcγ-receptor 3a protein, …; assay: surface plasmon resonance, KD from ka and kd; A2, F158 allotype

T1 sequence (P08637 17-208 F176V): as the sequence (P08637 17-208 limits assumed) above, with F160V counted along it

Binder | Kd [1] [nM] | fold increased binding against the non Fc-engineered IgG1 reference antibody [2] [fold] | Kd [3] [nM] | Kd [4] [nM]
CD37 antibody B2 (antibody, human IgG1, kappa, Fc-engineered CD37 antibody; copies: 2 + 2) heavy: not shown light: DIQMTQSPSSLSASVGDRVTITCRTSENVYSYLAWYQQKPGKAPKLLVSFAKTLAEGVPSRFSGSGSGTDFTLTISSLQPEDFATYFCQHHSDNPWTFGQGTKVEIKRTVAAPSVFIFPPSDEQLKSGTASVVCLLNNFYPREAKVQWKVDNALQSGNSQESVTEQDSKDSTYSLSSTLTLSKADYEKHKVYACEVTHQGLSSPVTKSFNRGEC | 9.3 | ~40 | 21.1 | 
CD37 antibody A2 (antibody, human IgG1, kappa, Fc-engineered CD37 antibody; copies: 2 + 2) heavy: not shown light: DIQMTQSPASLSASVGETVTITCRTSENVYSYLAWYQQKQGKSPQLLVSFAKTLAEGVPSRFSGSGSGTQFSLKISSLQPEDSGSYFCQHHSDNPWTFGGGTELEIKRTVAAPSVFIFPPSDEQLKSGTASVVCLLNNFYPREAKVQWKVDNALQSGNSQESVTEQDSKDSTYSLSSTLTLSKADYEKHKVYACEVTHQGLSSPVTKSFNRGEC | 8.8 | ~40 |  | 17.5
